The values below come from a protein production outcome set (Wang et al. 2014).

The data set is described as follows: label from the status in PepcDB records.
“MSLRDYTRKRRFDQTPEPAEDAAATAHRQPIFVVQLHHASSRHYDFRLEADGVLKSWAVPKGPSLRAGEKRLAVQVEDHPLAYAGFEGDIPQGQYGAGHVQVFDHGTWHCDGDALAALDAGKLDFDLQGDKLRGGFALVRTRLRGRQPQWLLIKRDDAHAADLDADALVADSDATAQAIETPSAAAAPARRAKASRRRRTPAEALVTEKSASASRPRASAATQAHWRTRALALPGARDAACPTGLRAQLTLLRAEAPDGAQWPHEIKWDGYRLLTDLVDGRAQLRSRNDQAWTDSFPEVATAVQALPVRDARLDGELVVLDAQGRSDFSALQRAIDGTARQPLRYLVFDLLGVAGVDLRATPLLERKQLLRALLGETPGTLAYSAHVIGRGPEVFAASADKGWEGIVSKRADAPYRGGRSADWVKTKHEDSDEFVVVGYTDPKGARSGFGALLLAQLDGTQLRYVGRVGTGFDSALLGEITAQLQALHSPQPTLELPAHIPSRPRDVHWVRPVLIAEVAFRGWAKQGLLRQAAFKRLREDKPMSDLGGDRATPGKSRGARTRTAAAAAGKASRAAATRTAAVSAGGSAAKPGKAGKSSTAADVSTPSRVAKQRVTPAASSAAKPGKPGKSSAAATGTASPRAAKRGAVSTASASSTPKSGKRSVSSGSAASGKPAAPSKAASSKTARTPATSSARKTSTATAASSIRKARASASNAPDGVAITHPERVVFPAAGISKGDVAAYYRAVAPLVLPEIARRPLSLLRCPDGAAGACFFQKHEGRHLGAHIKAIPLKQKSGTEDYLYIEDVAGLLELVQMNTLELHPWGARVDDPEHPDRLVFDLDPGEGVAWTQVVAAAREIRSKLRAAGLESAVRLSGGKGLHVVVPIVPQASWDQARDFCEAFAQALATQAPERYVATMSKAKRHGVIFVDWLRNGRGNTSVCSWSLRAREHATVAVPLRWEELGKLSGPDAFPLDKAVQRAKRQRNDPWADVLALKQVLPG”: the protein production entry is on record as “failed”.

With “MLSERRLKVLRAIVQDYVGTEEPVGSKALTERHNLGVSPATVRNDMAALEDEGFIAQPHTSAGRIPTDKGYRLFVDKLAGVKPMTAPERRAIQNFLEGAVDLDDVVARTVRLLAQLTRQVAVVQYPSLTRSTVRHVELLSLAPARLMLVLITDTGRVEQRMVDCPAPFGEASLADLRARLNSRVAGRRFADVPALVEDLAEPFEAEDRGTVSTVLSTLLETLVEENEERLMIGGTANLTRFGHDFPLVIRPVLEALEEQVVLLKLLGEAKDPGVTVRIGHENAHEGLNSTSVVSVGYGSGGEAVAKLGVVGPTRMDYPGTMGAVRAVARYVGQILAES”, the protein production entry is given as “failed”.

Take “RSRIDTALNRGRCGLWDWDLSRGRIFWSQSMFTILGLESRNDLLTFGEVNALVKGEDIDLFAIADELMAGRVDHIDHSFQMRHAHGHWIWLRMRCELTQEAGATEKHLIGIAVDITEQKSLAERSVEADLRLRDAIETIPEAFVLWDAENRLVLCNSHFQRL”: the protein production result is reported as “failed”.

For the sequence “MSKHVLRLALVGNPNSGKTALFNRLTGSRQKVANYPGVTVERKEGYFRASSGREFVILDLPGAYSFQPASFDEAITRDFCRGFYPGEAPPDVLVCVVDATNLRLHLRFVLELIELGRPVVVALNMVDAAQRRGIRIDRVILEQLLGVPVVETVAVRRHGARALLEQLDTGVIPLPAPVPALAAGDQYHAQVRHILDAAVKMPSRTSRVDDALDRWLLHPVFGLVVLTVVMFLIFQAVYAWAAPLVSLIEGSTTVLGHWVGNRLPDGPLRSLVVDGIITGIGGVLMFLPQILILFAFILALEESGYLPRAAFLLDRLMVLAGLSGRSFIPLLSSFACAVPGIMSTRSIQDPRDRLVTILVAPLMTCSARLPVYTLLIGAFVPRKSLWGPINQQGLVLFGLYMAGIFSALVVSWTVKKWRRGTSEHPLLLELPSYRLPHSRDLLLGLWERAVIFLKRVGGIILALTILLWFLLAFPEPPSGAIGPAIQYSFAGRIGHVIAVFFAPLGFSWQICIALIPGLAAREVAVSSLATVYALSASNEEMAVRALSPLIQDGWSLATALSLLVWYIYAPMCISTLVTIKRETNSWKHMAMTAGYLFALAYLAALATYQVALLLGAG”, the protein production result is “failed”.

Regarding “MKELPRGDLLSPKTEEKFKLTNKAKIFFRPYMDPPEMPSSEYPLWLCTGRVLEHWHSGTMTMRVPELYRAVPEALCYMHPEDAKKLGVKQNEAVWVESRRGKVKARLEHHHHHH”, the protein production entry is recorded as “not failed”.

For the sequence “MHVQEWLDTVPAAAVYAVVGLVIGLESLGIPLPGEIILVSAALLSSQHGGIDPLVLGACASAGAVIGDSIGYAIGRKGGRPLLAWLGGKFPRHFGEGHVATAERSFQKWGMWAVFFGRFVALLRIFAGPLAGVLRMPYWKFLIANVLGGIVWAGGTTAVIYYVGVVAEDWLKRFSWLGLVVAVLIGIASMLIVKRRAGKAQQTPEPVAAGE”, the protein production entry is listed as “failed”.
